Results reported in publication PMC7374565 (Nature Communications, 2020).

What was measured:
[1] = molecular target: intrinsically disordered domain of avian ANP32A (amino acids 149-281) (Gallus gallus); assay: NMR titration; details: both partners purified
[2] = molecular target: intrinsically disordered domain of human ANP32A (amino acids 144-249) (human, UniProt P39687 144-249); assay: NMR titration; details: both partners purified
Sequence of intrinsically disordered domain of human ANP32A (amino acids 144-249) (P39687 144-249): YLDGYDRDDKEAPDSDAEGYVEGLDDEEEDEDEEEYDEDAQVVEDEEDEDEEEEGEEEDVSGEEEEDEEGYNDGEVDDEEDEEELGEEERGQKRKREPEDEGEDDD

B1: 627 domain of PB2 (E627), amino acids 538-693 (domain or fragment)
chain: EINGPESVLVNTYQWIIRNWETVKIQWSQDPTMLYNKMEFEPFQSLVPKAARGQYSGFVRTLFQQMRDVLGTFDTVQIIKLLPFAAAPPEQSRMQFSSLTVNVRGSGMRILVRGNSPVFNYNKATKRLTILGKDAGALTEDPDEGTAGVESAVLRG
KD of the individual sites (tightest) [1]: ≥ 1700 µM | Kd [1]: > 600 µM | KD of the individual sites [2]: > 1400 µM
